This passage reports Kd results from PMC10874388, “Cyclic peptides discriminate BCL-2 and its clinical mutants from BCL-XL by engaging a single-residue discrepancy” (Nature Communications, 2024).

Starred links: 1 amine or outer side, 2 acyl side, 3 side chain; linkers in the order of their positions; H or OH if unused. Positions of bridges follow the written chain, without caps; N, C: chain ends. Residues, ends and D or L forms follow the SMILES beside them. No end group written: not given here. *: point of attachment. X1 = O=C(C[*:2])NCCNC(=O)c1ccc(C2=N[C@H](C(=O)[*:1])CS2)cc1; FITC = O=C1OC2(c3ccc(O)cc3Oc3cc(O)ccc32)c2ccc(NC(=S)*)cc21; ADT (ClAc-3) = not defined here; c‑ADT = not defined here

For one assay, the target named is T1, BCL-XL (Homo sapiens, UniProt Q07817, DEL27-81).
T1 construct: human BCL-XL (residues 1–210, with 27–81 and 210–233 removed); vector-borne tag of pET-22b (Ni-NTA purification implies a His tag); made in house; host or cells: E. coli BL21 (DE3)
The assay can be described thus: SPR binding assay, BCL-XL. The following applies: affinity fitting, mean ± SD of three independent experiments, 25 °C. From the text: (§1) The DNA fragments encoding human BCL-XL ([…], with […] removed), BCL-w (residues 6–152), MCL-1 (residues 152–308) and BFL-1 (residues 1–151) as previously reported[18] were cloned into a pET-22b vector (Invitrogen), respectively. A chimeric human BCL-2 (including residues 1–50 and 92–207) was constructed, by removing the internal long loop (residues 51–91) and replacing its residues 35–50 with residues 33–48 of BCL-XL to solubilize the protein[14], and then it was cloned into a pET28a-Sumo vector (Invitrogen). All BCL-2 mutants (G101V, F104L, Y103D, D111A) were generated by mutagenic PCR, according to the QuikChange (Stratagene) protocol.
(§2) SPR assays were performed using a Biacore T200 instrument in running buffer consisting 10 mM PBS, 50 μM EDTA and 0.05% Tween-20 at 25 °C. Biotinylated proteins were immobilized on a CAP sensor chip (Cytiva, 28920234). […] The binding affinities were quantified by the Biacore evaluation software using 1:1 binding model. The reproducibility of the assays was confirmed by performing replicate determinations.
On the technique in general: Surface plasmon resonance follows binding to a sensor surface in real time, without labels.

The next assay has as its target MCL-1 (Homo sapiens, UniProt Q07820). The assay can be described thus: SPR binding assay, MCL-1. The settings on record: NB = no binding.
From the text: as §1, §2

The target of a further assay is T2, BFL-1 (Homo sapiens, UniProt Q16548).
T2 construct: BFL-1 (residues 1–151); vector-borne tag of pET-22b (Ni-NTA purification implies a His tag); made in house; host or cells: E. coli BL21 (DE3)
T2 sequence (Q16548 1-151): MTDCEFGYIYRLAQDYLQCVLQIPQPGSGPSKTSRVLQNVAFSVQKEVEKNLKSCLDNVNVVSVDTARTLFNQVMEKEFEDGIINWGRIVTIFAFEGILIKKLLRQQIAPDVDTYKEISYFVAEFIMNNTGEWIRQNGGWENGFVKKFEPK
The assay can be described thus: SPR binding assay, BFL-1. The settings on record: NB = no binding.
From the text: as §1, §2

Assay [1] has as its target T3, chimeric human BCL-2 (residues 1-50 and 92-207, residues 35-50 replaced with residues 33-48 of BCL-XL) (human, UniProt P10415 1-34; Q07817-1 33-48; P10415 92-207, biotinylated for the SPR assays (sites not given)).
T3 construct: BCL-2, human, residues 1-34 (residues 35-50 are replaced, see next part); BCL-XL, human, residues 33-48, replacing residues 35-50 of BCL-2; BCL-2, human, residues 92-207 (internal loop 51-91 removed); also called BCL-2 WT; source: E. coli BL21 (DE3), purified (Ni-NTA, Superdex 75, RESOURCE Q, Superdex 200)
T3 chain (looked up): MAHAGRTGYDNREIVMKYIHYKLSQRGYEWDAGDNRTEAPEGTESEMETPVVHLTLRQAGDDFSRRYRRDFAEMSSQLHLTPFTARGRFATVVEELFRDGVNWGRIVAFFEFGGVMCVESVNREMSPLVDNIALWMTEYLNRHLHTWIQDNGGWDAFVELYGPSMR
Briefly: fluorescence polarisation; direct binding: 20 nM FITC-labelled peptide, protein from 60 nM to 1000 nM; 1x PBS pH 7.4, room temperature, 10 min. The settings on record: both partners purified. On the technique in general: Polarisation of emitted light reports the rotation of a fluorescent probe.

The target in assay [2] is T4, human BCL-XL (residues 1-210, with 27-81 and 210-233 removed) (human, UniProt Q07817-1 1-210, 27-81 removed, biotinylated for the SPR assays (sites not given)).
T4 construct: BCL-XL, human, residues 1-210 with the loop 27-81 removed; source: E. coli BL21 (DE3), purified (Ni-NTA, Superdex 75, RESOURCE Q, Superdex 200)
Described as above. The settings on record: both partners purified.

For assay [3], the target named is T3, chimeric human BCL-2 (residues 1-50 and …). Briefly: SPR; Biacore T200; biotinylated proteins immobilised on a CAP sensor chip, peptides flowed over at 30 uL/min in multiple cycles; 10 mM PBS, 50 uM EDTA, 0.05% Tween-20, 25 °C; 1:1 binding model. The following applies: both partners purified.
Assay [4] concerns the target T4, human BCL-XL (residues 1-210, with …). The assay is described as above. The following applies: both partners purified.

T4 sequence (Q07817 other isoform, or with tags, fused parts or gaps 27-81 removed | 27-81 removed): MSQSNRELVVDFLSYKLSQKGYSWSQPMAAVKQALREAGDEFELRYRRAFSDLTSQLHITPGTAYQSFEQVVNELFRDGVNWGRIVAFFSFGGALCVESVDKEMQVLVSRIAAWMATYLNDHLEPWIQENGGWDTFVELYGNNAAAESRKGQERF
MCL-1, sequence (Q07820 152-308): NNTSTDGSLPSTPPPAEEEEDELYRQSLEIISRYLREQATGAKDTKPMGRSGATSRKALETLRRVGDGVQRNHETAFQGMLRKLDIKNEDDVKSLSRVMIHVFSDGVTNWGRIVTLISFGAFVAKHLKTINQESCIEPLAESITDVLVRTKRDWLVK

On to `C[C@@H]1NC(=O)[C@@H]2CCCN2C(=O)[C@@H]2CSC(=N2)c2ccc(cc2)C(=O)NCCNC(=O)CSC[C@@H](C(=O)NCC(=O)N[C@@H](CO)C(=O)NCC(=O)N[C@@H](CO)C(=O)N[C@@H](CCCNC(=N)N)C(=O)N[C@@H](CCCCN)C(=O)N[C@@H](CCCCN)C(=O)N[C@@H](CCCNC(=N)N)C(=O)N[C@@H](CCCNC(=N)N)C(=O)N[C@@H](CCC(N)=O)C(=O)N[C@@H](CCCNC(=N)N)C(=O)N[C@@H](CCCNC(=N)N)C(=O)N[C@@H](CCCNC(=N)N)C(=O)N[C@@H](CCC(=O)O)C(=O)N[C@@H](CCC(=O)O)C(=O)N[C@@H](CCC(=O)O)C(=O)N[C@@H](CCC(=O)O)C(=O)N[C@@H](CCC(=O)O)C(=O)N[C@@H](CCC(=O)O)C(=O)N[C@@H](CCC(=O)O)C(=O)N[C@@H](CCC(=O)O)C(N)=O)NC(=O)[C@H](CCC(=O)O)NC(=O)[C@H](Cc2ccc(O)cc2)NC(=O)[C@H](CC(=O)O)NC(=O)[C@H](Cc2c[nH]c3ccccc23)NC(=O)CNC(=O)[C@H](Cc2ccc(O)cc2)NC(=O)[C@H](CCCNC(=N)N)NC1=O` [cp1-TAT-8E] (PARYGWDYECGSGSRKKRRQRRREEEEEEEE-NH2; linker N-10 via X1), for which the Kd (as a rule, the equilibrium constant for the complex coming apart) at BCL-XL amounted to 1170 ± 70 nM.

As for `CC[C@H](C)[C@@H]1NC(=O)[C@@H]2CCCN2C(=O)[C@@H]2CSC(=N2)c2ccc(cc2)C(=O)NCCNC(=O)CSC[C@@H](C(N)=O)NC(=O)[C@H](Cc2ccccc2)NC(=O)[C@H](CCC(=O)O)NC(=O)[C@H](CC(=O)O)NC(=O)[C@H](Cc2c[nH]c3ccccc23)NC(=O)[C@H](CCC(=O)O)NC(=O)[C@H](Cc2ccc(O)cc2)NC(=O)[C@H](CCCNC(=N)N)NC1=O` [cp2] (PIRYEWDEFC-NH2; linker N-10 via X1), the Kd on MCL-1 and at BFL-1 was > 12800 nM in each case.

Consider `CC[C@H](C)[C@@H]1NC(=O)[C@@H]2CCCN2C(=O)[C@@H]2CSC(=N2)c2ccc(cc2)C(=O)NCCNC(=O)CSC[C@@H](C(N)=O)NC(=O)[C@H](CCC(=O)O)NC(=O)[C@H](C(C)C)NC(=O)[C@H](CC(=O)O)NC(=O)[C@H](Cc2c[nH]c3ccccc23)NC(=O)[C@@H]2CCCN2C(=O)[C@H](Cc2ccc(O)cc2)NC(=O)[C@H](CCCNC(=N)N)NC1=O` [cp3] (PIRYPWDVEC-NH2; linker N-10 via X1), for which the Kd on MCL-1 and on BFL-1 was > 12800 nM each time.

B1: cp3-F (peptide)
peptide: CPIRYPWDVECGK(FITC)
modifications: linker 1-11 via ADT (ClAc-3) (inferred); reading uncertain; also: modified by ClAc-3, printed as CPIRYPWDVECG{K(FITC)}
notes: also called cp3-FITC; source: synthetic peptide
Turning to B1, the dissociation constant Kd in assay [1] was found to be 177 nM; in assay [2] it was 270 nM.

With CPIRYEWDEFCGSGSRKKRRQRRREEEEEEEE (linker 1-11 via c‑ADT; reading uncertain, source: synthetic peptide) [cp2-TAT-8E], the Kd in assay [3] turned out to be 140 ± 50 nM; in assay [4] it was 130 ± 9 nM.

In the case of CPIRYPWDVECGSGSRKKRRQRRREEEEEEEE (linker 1-11 via c‑ADT; reading uncertain, source: synthetic peptide) [cp3-TAT-8E], the Kd amounted to 70 ± 10 nM in assay [3] and 20 ± 1 nM in assay [4].

B2: cp2-F (peptide)
peptide: CPIRYEWDEFCGK(FITC)
modifications: linker 1-11 via ADT (ClAc-3) (inferred); reading uncertain; also: modified by ClAc-3, printed as CPIRYEWDEFCG{K(FITC)}
notes: also called cp2-FITC; source: synthetic peptide
As to B2, the results for the Kd in assay [1] and in assay [2] were 97.2 nM and 810 nM, respectively.
